Laboratory results published in US20150258192A1, “COMPOSITIONS AND METHODS FOR PREVENTING OR TREATING CHRONIC LUNG ALLOGRAFT DYSFUNCTION (CLAD) AND IDIOPATHIC PULMONARY FIBROSIS (IPF)” (priority 2014, published 2015).
No end group written: not given here.

What was measured:
Assay in all cases: Kinase Profiling Assay
Type in all cases: biochemical
Conditions in all cases: peptide 100 μM
ASK1(h) = biological target: T1, ASK1(h) (Homo sapiens, UniProt Q99683)
T1 sequence (Q99683 1-1374): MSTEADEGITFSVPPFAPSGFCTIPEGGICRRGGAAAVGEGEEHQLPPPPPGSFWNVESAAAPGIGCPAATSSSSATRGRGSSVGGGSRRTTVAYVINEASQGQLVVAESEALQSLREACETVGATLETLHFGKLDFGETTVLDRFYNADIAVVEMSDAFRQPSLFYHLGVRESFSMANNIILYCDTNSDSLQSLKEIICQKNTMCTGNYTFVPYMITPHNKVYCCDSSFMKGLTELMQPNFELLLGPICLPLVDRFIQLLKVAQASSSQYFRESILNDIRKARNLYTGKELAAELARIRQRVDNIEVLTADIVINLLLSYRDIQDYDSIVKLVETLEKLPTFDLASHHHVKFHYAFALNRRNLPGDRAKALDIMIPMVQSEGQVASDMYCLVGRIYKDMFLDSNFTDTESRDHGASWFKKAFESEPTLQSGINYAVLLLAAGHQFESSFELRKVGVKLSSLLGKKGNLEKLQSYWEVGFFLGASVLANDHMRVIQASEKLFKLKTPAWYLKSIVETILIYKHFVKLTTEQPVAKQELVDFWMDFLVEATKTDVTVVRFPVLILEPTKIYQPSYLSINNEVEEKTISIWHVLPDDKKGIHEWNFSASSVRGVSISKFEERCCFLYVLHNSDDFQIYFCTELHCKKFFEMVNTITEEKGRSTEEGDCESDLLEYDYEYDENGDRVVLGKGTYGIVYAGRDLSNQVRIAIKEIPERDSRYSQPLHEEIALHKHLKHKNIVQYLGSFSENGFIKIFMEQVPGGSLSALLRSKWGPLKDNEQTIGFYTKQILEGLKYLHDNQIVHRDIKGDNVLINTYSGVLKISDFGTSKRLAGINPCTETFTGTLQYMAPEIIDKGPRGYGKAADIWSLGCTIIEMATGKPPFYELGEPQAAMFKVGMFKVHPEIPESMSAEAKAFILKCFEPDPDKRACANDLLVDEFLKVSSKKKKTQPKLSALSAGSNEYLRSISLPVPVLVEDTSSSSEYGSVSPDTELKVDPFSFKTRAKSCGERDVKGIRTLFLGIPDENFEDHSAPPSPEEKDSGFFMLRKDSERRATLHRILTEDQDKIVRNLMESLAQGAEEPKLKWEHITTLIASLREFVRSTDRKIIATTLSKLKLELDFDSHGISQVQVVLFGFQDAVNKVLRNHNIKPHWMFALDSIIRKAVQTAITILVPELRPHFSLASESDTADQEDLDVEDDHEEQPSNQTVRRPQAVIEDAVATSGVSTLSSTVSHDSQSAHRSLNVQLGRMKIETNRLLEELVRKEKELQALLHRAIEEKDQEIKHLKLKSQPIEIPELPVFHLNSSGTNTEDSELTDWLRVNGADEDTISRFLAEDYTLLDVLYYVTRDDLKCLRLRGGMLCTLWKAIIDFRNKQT
Method in brief: (§1)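 Scintillation counting quantifies radiolabeled, positively charged substrate retained on a negatively charged filter after kinase reaction with labeled ATP; inhibitor peptide present.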

CDK5/p25(h) = CDK5/p25(h) (Homo sapiens, UniProt Q00535)
CDK5/p25(h), sequence (Q00535 whole entry): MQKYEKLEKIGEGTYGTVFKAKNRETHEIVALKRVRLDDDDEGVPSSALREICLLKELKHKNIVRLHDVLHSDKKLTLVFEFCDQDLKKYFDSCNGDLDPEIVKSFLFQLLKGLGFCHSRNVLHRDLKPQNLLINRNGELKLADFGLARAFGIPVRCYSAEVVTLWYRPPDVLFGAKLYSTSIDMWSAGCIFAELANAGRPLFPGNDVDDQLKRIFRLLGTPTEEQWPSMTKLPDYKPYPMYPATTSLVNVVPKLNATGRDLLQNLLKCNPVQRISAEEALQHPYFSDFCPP
CDK5/p25(h), sequence (Q15078 99-307 partner limits assumed): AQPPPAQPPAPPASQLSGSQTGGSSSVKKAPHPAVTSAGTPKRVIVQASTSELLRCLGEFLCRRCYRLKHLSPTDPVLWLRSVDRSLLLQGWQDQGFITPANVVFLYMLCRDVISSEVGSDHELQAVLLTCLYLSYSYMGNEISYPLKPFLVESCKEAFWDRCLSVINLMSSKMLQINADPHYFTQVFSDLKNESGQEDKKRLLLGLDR
Method in brief: as §1

EphB4(h) = biological target: T2, EphB4(h) (Homo sapiens, UniProt P54760)
T2 sequence (P54760 16-987): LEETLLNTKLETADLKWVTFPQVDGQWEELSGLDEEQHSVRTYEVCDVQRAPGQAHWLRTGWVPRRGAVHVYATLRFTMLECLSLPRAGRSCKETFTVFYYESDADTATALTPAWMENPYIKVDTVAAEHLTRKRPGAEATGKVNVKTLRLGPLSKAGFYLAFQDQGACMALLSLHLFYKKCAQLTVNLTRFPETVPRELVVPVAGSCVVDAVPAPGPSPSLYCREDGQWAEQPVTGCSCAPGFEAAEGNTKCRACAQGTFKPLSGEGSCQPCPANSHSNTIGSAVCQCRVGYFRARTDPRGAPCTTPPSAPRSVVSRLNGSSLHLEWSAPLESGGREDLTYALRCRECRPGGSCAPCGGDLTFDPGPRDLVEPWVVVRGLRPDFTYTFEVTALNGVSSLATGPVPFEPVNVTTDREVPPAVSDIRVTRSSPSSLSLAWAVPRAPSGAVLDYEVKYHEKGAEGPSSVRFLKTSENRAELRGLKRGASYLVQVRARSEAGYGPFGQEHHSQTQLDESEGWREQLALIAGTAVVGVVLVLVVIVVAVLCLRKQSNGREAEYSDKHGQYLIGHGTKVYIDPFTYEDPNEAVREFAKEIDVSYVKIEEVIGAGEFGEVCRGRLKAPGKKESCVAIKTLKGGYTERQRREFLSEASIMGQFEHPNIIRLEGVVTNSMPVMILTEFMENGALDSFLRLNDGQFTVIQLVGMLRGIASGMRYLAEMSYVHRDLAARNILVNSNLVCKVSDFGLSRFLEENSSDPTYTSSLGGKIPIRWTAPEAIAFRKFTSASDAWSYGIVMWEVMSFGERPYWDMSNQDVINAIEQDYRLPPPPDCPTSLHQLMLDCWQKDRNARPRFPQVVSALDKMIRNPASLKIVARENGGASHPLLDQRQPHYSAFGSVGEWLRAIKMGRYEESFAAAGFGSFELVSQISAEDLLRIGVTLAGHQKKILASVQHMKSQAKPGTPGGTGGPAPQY
Method in brief: as §1

IR(h) = biological target: T3, IR(h) (Homo sapiens, UniProt P06213)
T3 construct: purchased Millipore
Method in brief: as §1

Lck(h) activated = biological target: T4, Lck(h) activated (Homo sapiens, UniProt P06239)
T4 construct: purchased Millipore
T4 sequence (P06239 whole entry): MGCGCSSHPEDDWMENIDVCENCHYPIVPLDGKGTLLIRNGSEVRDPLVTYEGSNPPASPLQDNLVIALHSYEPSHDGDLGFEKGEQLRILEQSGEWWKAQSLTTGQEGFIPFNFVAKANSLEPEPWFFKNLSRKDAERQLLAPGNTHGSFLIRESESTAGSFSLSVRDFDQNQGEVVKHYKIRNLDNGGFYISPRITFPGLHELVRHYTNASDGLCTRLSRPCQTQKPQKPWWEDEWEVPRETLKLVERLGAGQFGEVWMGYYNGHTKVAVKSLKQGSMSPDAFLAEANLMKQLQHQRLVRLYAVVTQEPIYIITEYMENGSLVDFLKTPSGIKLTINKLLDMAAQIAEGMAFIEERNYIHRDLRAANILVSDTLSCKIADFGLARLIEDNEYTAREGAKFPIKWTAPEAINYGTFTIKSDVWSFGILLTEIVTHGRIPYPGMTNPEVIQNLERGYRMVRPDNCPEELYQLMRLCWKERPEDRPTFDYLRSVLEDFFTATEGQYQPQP
Method in brief: as §1

Met(D1246N)(h) = biological target: T5, Met(D1246N)(h) (Homo sapiens, UniProt P08581, D1228N)
T5 construct: purchased Millipore
Method in brief: as §1

PKCη(h) = PKCη(h) (Homo sapiens, UniProt P24723)
PKCη(h), sequence (P24723 whole entry): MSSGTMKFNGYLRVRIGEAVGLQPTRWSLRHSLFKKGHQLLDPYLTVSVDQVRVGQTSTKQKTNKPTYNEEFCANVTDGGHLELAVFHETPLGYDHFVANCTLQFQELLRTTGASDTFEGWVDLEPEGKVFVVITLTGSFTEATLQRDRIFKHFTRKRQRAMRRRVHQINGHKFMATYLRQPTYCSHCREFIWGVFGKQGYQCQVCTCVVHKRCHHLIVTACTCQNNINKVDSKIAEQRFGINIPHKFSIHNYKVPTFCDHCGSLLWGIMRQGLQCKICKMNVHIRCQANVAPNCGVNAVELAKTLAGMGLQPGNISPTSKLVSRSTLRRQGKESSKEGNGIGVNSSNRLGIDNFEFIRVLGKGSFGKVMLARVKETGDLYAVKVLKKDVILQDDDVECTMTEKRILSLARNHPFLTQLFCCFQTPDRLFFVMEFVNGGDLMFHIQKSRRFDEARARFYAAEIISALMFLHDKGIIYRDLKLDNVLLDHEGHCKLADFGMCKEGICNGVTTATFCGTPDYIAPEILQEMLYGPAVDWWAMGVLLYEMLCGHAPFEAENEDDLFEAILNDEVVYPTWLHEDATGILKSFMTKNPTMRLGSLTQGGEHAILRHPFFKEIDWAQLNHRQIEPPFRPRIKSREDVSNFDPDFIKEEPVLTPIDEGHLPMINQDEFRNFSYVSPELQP
Method in brief: as §1

TLK2(h) = TLK2(h) (Homo sapiens, UniProt Q86UE8)
TLK2(h), sequence (Q86UE8 whole entry): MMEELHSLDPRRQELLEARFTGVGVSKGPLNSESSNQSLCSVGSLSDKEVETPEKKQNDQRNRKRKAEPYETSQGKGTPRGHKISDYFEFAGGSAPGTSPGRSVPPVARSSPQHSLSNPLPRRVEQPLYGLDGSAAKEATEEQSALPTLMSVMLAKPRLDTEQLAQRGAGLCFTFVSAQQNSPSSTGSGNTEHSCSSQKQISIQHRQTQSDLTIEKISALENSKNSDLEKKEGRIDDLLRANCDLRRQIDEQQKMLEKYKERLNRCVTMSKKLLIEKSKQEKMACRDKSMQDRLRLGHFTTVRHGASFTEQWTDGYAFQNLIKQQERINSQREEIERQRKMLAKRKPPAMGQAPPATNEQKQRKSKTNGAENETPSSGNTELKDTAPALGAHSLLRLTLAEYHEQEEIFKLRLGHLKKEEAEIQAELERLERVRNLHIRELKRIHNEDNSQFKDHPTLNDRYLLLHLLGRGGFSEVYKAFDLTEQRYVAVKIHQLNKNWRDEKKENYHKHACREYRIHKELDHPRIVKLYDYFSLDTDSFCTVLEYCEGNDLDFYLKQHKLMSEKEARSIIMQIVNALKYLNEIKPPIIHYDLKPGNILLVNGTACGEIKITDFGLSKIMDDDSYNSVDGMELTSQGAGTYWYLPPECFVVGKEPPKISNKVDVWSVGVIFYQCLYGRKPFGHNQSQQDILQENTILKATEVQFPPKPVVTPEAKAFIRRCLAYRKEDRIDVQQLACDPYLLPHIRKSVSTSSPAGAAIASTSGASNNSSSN
Method in brief: as §1

eEF-2K(h) = eEF-2K(h) (Homo sapiens, UniProt O00418)
Method in brief: as §1

Sequence | % activity (ASK1(h)) [%] | % activity (CDK5/p25(h)) [%] | % activity (EphB4(h)) [%] | % activity (IR(h)) [%] | % activity (Lck(h) activated) [%] | % activity (Met(D1246N)(h)) [%] | % activity (PKCη(h)) [%] | % activity (TLK2(h)) [%] | % activity (eEF-2K(h)) [%]
YARAAARQARAKALNRQLGVA (Mammal) [MMI-0200] | 101 | 97 | 131 | 90 | 90 | 149 | 101 | 129 | –
YARAAARQARAKALARQLGVAA [MMI-0100] | – | – | 62 | – | – | – | – | – | –
HRRIKAWLKKIKALARQLGVAA (Mammal) [MMI-0500] | -4 | 66 | 38 | 95 | 76 | 90 | 45 | 133 | 43
KAFAKLAARLYRKALARQLGVAA [MMI-0400] | 69 | 92 | 28 | 85 | 216 | 31 | 98 | 151 | 43
FAKLAARLYRKALARQLGVAA [MMI-0300] | 80 | 89 | 44 | 96 | 243 | 82 | – | – | 91
